Where two headings read alike, the source gives them in different places.

This is an account of results in patent publication US20220306759A1 (CYTOMX THERAPEUTICS, published 2022).

Test [1] has as its target T1, recombinant human CD71 protein (human, UniProt P02786 89-760).
T1 construct: also called recombinant CD71
The test is described as follows: ELISA; Kd against CD71 21.12. As to the method:
(§1) The amount of bound antibody was detected by incubation and detection by goat anti-human antibody conjugated to horseradish peroxidase and Ultra TMB (Thermo Fisher Scientific) detection.
Background: An ELISA detects its analyte on a solid surface through an enzyme-linked reagent.

Test [2] deals with T1, recombinant human CD71 protein. The test is described as follows: ELISA, 1 µg/mL CD71, uncleaved. As to the method:
as §1

The target in test [3] is T2, human CD71 (transferrin receptor protein 1, TfR1) on human cell lines (human, UniProt P02786 1-760).
T2 construct: whole, on cells; also called huCD71
The test is described as follows: FACS on DMS 79 cells. As to the method: (§2) In this study, the binding of the antibodies and ADCs of the present disclosure to the indicated cell lines were performed using a standard FACS labelling method.

Test [4] has as its target T2, human CD71 (transferrin receptor …). The test is described as follows: FACS on DMS 153 cells. As to the method:
as §2

The target in test [5] is T1, recombinant human CD71 protein. The test is described as follows: ELISA; Kd against CD71 21.12. As to the method: as §1
The source holds these as a separate data set.

For test [6], the target named is T2, human CD71 (transferrin receptor …). The test is described as follows: FACS on FaDu cells, uncleaved. The procedure: (§3) In this study, the binding of the antibodies of the present disclosure to the indicated cell lines were performed using a standard FACS labelling method.
Test [7] has the same target. Description: FACS on HT29 cells, uncleaved. The procedure:
as §3

The target is the same in test [8]. Description: FACS on BxPC3 cells, uncleaved. As to the method:
as §3

Test [9] shares this target. The test is described as follows: FACS on MDA MB 231 cells, uncleaved. As to the method: as §3
The target is the same in test [10]. The test is described as follows: FACS on FaDu cells; Kd against CD71-Ab. As to the method:
as §3

The target is the same in test [11]. The test is described as follows: FACS on HT29 cells; Kd against CD71-Ab. As to the method: as §3
For test [12] the target is unchanged. Description: FACS on BxPC3 cells; Kd against CD71-Ab. The procedure:
as §3

For test [13] the target is unchanged. The test is described as follows: FACS on MDA MB 231 cells; Kd against CD71-Ab. The procedure:
as §3

Test [14] addresses T1, recombinant human CD71 protein. The test is described as follows: ELISA, 1 µg/mL CD71 on nickel plates, not activated. As to the method: as §1
The target of test [15] is T2, human CD71 (transferrin receptor …). The test is described as follows: FACS on BxPC3 cells.
A further test has as its target T3, Human CD71-His6 (human, UniProt P02786 89-760, limits assumed).
T3 construct: immobilized on Ni-NTA substrate (Octet); also called recombinant human CD71 protein with hexa-histidine tag
The test is described as follows: BLI (Octet), CD71-His6 on Ni-NTA, Fab in solution. From the text:
(§4) The recombinant CD71 proteins included a hexa-histidine (His6) peptide tag, by which the protein was immobilized to a Ni-NTA (nitrilotriacetic acid)-containing substrate.
Background: BLI is a label-free optical method that tracks binding on a fibre tip over time.

A further test deals with T4, Cyno CD71-His6 (cynomolgus monkey, UniProt H9EXL1 89-760 (rhesus entry)).
T4 construct: immobilized on Ni-NTA substrate (Octet); also called recombinant cynomolgus CD71 protein with hexa-histidine tag
The test is described as follows: BLI (Octet), CD71-His6 on Ni-NTA, Fab in solution.
Text: as §4

In test [16] the target is T2, human CD71 (transferrin receptor …). Description: FACS on H292 cells. As to the method:
as §3

For test [17] the target is unchanged. The test is described as follows: FACS on HCC1806 cells. As to the method:
as §3

Test [18] shares this target. Description: FACS on H292 cells, uncleaved. As to the method: In this study, the binding of the antibodies of the present disclosure to the indicated cell lines were performed using a standard FACS labelling method. […] These activatable antibodies include the light chain of the correspondingly named sequence listed above in Table C. The cells were labeled with the indicated test article at the indicated concentrations and subsequently detected with an Alexa Fluor 647 labeled goat anti-human IgG secondary antibody.

For test [19], the target named is T1, recombinant human CD71 protein. Description: ELISA, 1 µg/mL recombinant human CD71, uncleaved. As to the method:
as §1

The target of test [20] is T2, human CD71 (transferrin receptor …). The test is described as follows: FACS on MDA MB 231 cells. The procedure: as §3

T3 sequence (P02786 other isoform, or with tags, fused parts or gaps limits assumed): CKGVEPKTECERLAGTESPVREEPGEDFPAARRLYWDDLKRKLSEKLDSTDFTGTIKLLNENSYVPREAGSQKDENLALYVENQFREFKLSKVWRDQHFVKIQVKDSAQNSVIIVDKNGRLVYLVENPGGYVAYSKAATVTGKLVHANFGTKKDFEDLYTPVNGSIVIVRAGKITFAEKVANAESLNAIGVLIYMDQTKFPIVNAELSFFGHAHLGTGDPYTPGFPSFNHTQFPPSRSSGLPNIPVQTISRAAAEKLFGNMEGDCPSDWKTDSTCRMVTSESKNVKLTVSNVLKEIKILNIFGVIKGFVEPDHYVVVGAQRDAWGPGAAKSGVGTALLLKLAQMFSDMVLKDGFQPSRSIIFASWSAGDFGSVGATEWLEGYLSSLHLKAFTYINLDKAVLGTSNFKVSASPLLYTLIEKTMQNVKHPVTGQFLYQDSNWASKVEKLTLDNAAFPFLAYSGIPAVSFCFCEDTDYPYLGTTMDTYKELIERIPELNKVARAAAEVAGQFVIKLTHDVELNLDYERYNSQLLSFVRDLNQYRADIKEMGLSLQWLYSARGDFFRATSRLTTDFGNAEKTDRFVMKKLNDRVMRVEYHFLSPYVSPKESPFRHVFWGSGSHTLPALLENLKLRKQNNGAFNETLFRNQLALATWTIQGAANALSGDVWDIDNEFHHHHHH
T4 sequence (chain, as listed by the source): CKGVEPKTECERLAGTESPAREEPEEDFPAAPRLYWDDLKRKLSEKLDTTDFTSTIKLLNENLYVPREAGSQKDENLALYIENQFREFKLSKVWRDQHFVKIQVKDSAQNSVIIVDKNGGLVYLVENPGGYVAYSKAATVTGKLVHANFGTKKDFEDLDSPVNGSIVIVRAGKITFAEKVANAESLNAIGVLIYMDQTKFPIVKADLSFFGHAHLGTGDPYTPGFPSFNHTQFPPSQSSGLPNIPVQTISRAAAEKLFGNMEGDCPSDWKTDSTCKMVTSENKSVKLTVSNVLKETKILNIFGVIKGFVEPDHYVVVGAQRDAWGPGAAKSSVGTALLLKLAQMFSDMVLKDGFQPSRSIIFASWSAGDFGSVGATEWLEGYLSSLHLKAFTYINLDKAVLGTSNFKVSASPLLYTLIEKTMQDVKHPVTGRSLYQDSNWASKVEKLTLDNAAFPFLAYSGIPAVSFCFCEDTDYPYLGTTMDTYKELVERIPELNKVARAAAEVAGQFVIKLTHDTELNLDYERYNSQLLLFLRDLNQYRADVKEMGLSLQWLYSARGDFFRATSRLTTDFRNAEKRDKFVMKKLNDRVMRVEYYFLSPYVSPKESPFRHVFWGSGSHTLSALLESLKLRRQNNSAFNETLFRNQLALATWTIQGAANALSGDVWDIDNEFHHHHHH
T1 sequence (P02786 89-760 limits assumed): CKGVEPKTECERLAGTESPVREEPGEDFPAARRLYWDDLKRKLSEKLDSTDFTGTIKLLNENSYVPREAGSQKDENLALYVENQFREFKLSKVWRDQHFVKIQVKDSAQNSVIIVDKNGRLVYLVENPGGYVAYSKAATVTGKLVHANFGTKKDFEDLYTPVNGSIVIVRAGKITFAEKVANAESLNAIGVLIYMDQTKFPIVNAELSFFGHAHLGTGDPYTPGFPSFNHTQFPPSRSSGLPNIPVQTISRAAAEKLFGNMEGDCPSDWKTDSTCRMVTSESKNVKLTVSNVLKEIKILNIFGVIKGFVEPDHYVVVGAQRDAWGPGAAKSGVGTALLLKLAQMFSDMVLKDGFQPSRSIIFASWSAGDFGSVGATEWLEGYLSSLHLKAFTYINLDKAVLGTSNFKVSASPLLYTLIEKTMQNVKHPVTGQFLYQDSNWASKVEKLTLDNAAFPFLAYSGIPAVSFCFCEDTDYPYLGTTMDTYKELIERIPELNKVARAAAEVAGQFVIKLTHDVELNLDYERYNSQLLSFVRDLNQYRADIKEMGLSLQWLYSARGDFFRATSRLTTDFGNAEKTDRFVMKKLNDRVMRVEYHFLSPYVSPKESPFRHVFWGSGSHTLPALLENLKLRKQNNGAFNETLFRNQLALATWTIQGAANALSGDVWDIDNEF
T2 sequence (P02786 whole entry): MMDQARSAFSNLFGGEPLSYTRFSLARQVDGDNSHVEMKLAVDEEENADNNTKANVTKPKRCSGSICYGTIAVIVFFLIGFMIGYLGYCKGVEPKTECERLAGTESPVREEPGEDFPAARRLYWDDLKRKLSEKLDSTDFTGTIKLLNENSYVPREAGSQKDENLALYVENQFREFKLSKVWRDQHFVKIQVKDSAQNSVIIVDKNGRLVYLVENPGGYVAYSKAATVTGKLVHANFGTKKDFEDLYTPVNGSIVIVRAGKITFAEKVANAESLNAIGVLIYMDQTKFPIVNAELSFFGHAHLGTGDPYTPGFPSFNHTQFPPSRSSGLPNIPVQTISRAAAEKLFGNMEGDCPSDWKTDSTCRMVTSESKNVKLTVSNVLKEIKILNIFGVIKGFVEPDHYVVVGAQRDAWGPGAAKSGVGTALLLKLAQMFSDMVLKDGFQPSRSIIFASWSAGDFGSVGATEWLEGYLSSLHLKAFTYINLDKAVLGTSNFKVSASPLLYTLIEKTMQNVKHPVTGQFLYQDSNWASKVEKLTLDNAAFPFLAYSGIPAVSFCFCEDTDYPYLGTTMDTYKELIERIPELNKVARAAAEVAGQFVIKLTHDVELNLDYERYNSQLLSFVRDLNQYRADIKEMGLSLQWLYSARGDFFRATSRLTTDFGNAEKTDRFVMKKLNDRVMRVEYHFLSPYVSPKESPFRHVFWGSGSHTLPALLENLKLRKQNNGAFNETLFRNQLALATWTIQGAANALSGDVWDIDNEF

B1: anti-human CD71 TF01-2001 activatable antibody (antibody, human IgG1, kappa)
heavy: not shown
light: QGQSGQGQFCPWSYYLIGDCDIGGGSSGGSISSGLLSGRSDNHGGGSDIQMTQSPSSLSASVGDRVTITCSASSSVYYMYWFQQKPGKAPKLWIYSTSNLASGVPSRFSGSGSGTDYTLTISSMQPEDFATYYCQQRRNYPYTFGQGTKLEIKRTVAAPSVFIFPPSDEQLKSGTASVVCLLNNFYPREAKVQWKVDNALQSGNSQESVTEQDSKDSTYSLSSTLTLSKADYEKHKVYACEVTHQGLSSPVTKSFNRGEC
notes: also called huCD71 TF01-2001
Consider B1, for which the “ME (masking efficiency)” value in test [1] was determined as 500 fold. The Kd in test [2] was determined as 70 nM.

B2: anti-human CD71 Ab21.12-Duoc (antibody, human IgG1, kappa)
heavy: not shown
light: DIQMTQSPSSLSASVGDRVTITCSASSSVYYMYWFQQKPGKAPKLWIYSTSNLASGVPSRFSGSGSGTDYTLTISSMQPEDFATYYCQQRRNYPYTFGQGTKLEIKRTVAAPSVFIFPPSDEQLKSGTASVVCLLNNFYPREAKVQWKVDNALQSGNSQESVTEQDSKDSTYSLSSTLTLSKADYEKHKVYACEVTHQGLSSPVTKSFNRGEC
modifications: duocarmycin conjugated to the antibody; chain and residues not stated
notes: antibody drug conjugate of Ab21.12; also called anti-human CD71 antibody conjugated to duocarmycin
In the case of B2, the Kd in [3] turned out to be 1.09 nM; in test [4] it was 2.3 nM.

B3: anti-human CD71 TF02.18-2001 activatable antibody (antibody, human IgG1, kappa)
heavy: not shown
light: QGQSGQGCTEHSFALDCGGGSSGGSISSGLLSGRSDNHGGGSDIQMTQSPSSLSASVGDRVTITCSASSSVYYMYWFQQKPGKAPKLWIYSTSNLASGVPSRFSGSGSGTDYTLTISSMQPEDFATYYCQQRRNYPYTFGQGTKLEIKRTVAAPSVFIFPPSDEQLKSGTASVVCLLNNFYPREAKVQWKVDNALQSGNSQESVTEQDSKDSTYSLSSTLTLSKADYEKHKVYACEVTHQGLSSPVTKSFNRGEC
notes: also called CD71-ActAb 2
In the case of B3, the “ME (masking efficiency)” value in test [5] is 9 fold; in test [1] it was 11 fold; in [10], 39 fold; in test [11], 39 fold; in test [12], 43 fold; in test [13], 38 fold. The Kd in test [6] stood at 15.4 nM; in test [7] it was 19.7 nM; in [8], 36.4 nM; in test [2], 1.59 nM; in test [9] it was 32 nM; in [14], 3 nM.

B4: anti-CD71 M21 monoclonal antibody (antibody, V domains shown)
VH: EVQLQESGTVLARPGASVKMSCKASGYTFTSYWMHWVKQRPGQGLEWIGAIYPGNSETGYNQNFKGKAKLTAVTSASTAYMDLSSLTNEDSAVYYCTRENWDPGFAFWGQGTLITVSA
VL: DIVMTQTPAIMSASPGEKVTITCSASSSVYYMYWFQQKPGTSPKLWIYSTSNLASGVPVRFSGSGSGTSYSLTISRMEAEDAATYYCQQRRNYPYTFGGGTKLEIKR
notes: mouse monoclonal antibody from hybridoma; also called muM21; Mab21
In the case of B4, in [15], the equilibrium dissociation constant (Kd) was ~3 nM.

B5: Ab21.10 LcB:HcA (antibody, V domains shown)
VH: QVQLVQSGAEVKKPGASVKVSCKASGYTFTSYWMHWVRQAPGQGLEWMGAIYPGNSETGYAQKFQGRVTMTRDTSTSTVYMELSSLRSEDTAVYYCARENWDPGFAFWGQGTLVTVSS
VL: DIQMTQSPSSLSASVGDRVTITCSASSSVYYMYWFQQKPGKAPKLWIYSTSNLASGVPSRFSGSGSGTDYTLTISSMQPEDFATYYCQQRRNYPYTFGQGTKLEIK
notes: humanized; detected with anti-human IgG; also called huCD71 Ab21.10
With B5, the binding result in [15] is reported as “binds”.

B6: anti-CD71 Fab fragment (papain digest of anti-CD71 21.12) (Fab, V domains shown)
VH: QVQLVQSGAEVKKPGASVKMSCKASGYTFTSYWMHWVRQAPGQGLEWIGAIYPGNSETGYAQKFQGRATLTADTSTSTAYMELSSLRSEDTAVYYCTRENWDPGFAFWGQGTLITVSS
VL: DIQMTQSPSSLSASVGDRVTITCSASSSVYYMYWFQQKPGKAPKLWIYSTSNLASGVPSRFSGSGSGTDYTLTISSMQPEDFATYYCQQRRNYPYTFGQGTKLEIKR
Take B6: in the test with Human CD71-His6, the Kd is 14 nM, the dissociation rate constant (koff) was found to be 0.00398 s⁻¹ and the on-rate (kon) was 664000 M⁻¹ s⁻¹. In the test with Cyno CD71-His6, the Kd is 6 nM, the koff was 0.00559 s⁻¹ and the association rate constant (kon) was 390000 M⁻¹ s⁻¹.

B7: anti-human CD71 TF02.13-2001 activatable antibody (antibody, human IgG1, kappa)
heavy: not shown
light: QGQSGQGNLCTEHSAALDCRSYGGGSSGGSISSGLLSGRSDNHGGGSDIQMTQSPSSLSASVGDRVTITCSASSSVYYMYWFQQKPGKAPKLWIYSTSNLASGVPSRFSGSGSGTDYTLTISSMQPEDFATYYCQQRRNYPYTFGQGTKLEIKRTVAAPSVFIFPPSDEQLKSGTASVVCLLNNFYPREAKVQWKVDNALQSGNSQESVTEQDSKDSTYSLSSTLTLSKADYEKHKVYACEVTHQGLSSPVTKSFNRGEC
Regarding B7, the “Bmax (MFI)” value in test [16] came out at 2210 MFI. The Kd was 92.3 nM in test [16]; ~200 nM in test [17]; 27.5 nM in [18]; 9.14 nM in [2]; 2.53 nM in [19]; 13 nM in [14]. Moreover, the “ME (masking efficiency)” value stood at 42 fold in test [5] and 65 fold in test [1].

B8: anti-human CD71 TF02.13-3001 activatable antibody (antibody, human IgG1, kappa)
heavy: not shown
light: QGQSGQGNLCTEHSAALDCRSYGGGSSGGSAVGLLAPPGGLSGRSDNHGGSDIQMTQSPSSLSASVGDRVTITCSASSSVYYMYWFQQKPGKAPKLWIYSTSNLASGVPSRFSGSGSGTDYTLTISSMQPEDFATYYCQQRRNYPYTFGQGTKLEIKRTVAAPSVFIFPPSDEQLKSGTASVVCLLNNFYPREAKVQWKVDNALQSGNSQESVTEQDSKDSTYSLSSTLTLSKADYEKHKVYACEVTHQGLSSPVTKSFNRGEC
notes: also called CD71-ActAb 1
Consider B8, for which the “Bmax (MFI)” value in [16] turned out to be 1820 MFI. Further, the Kd in test [16] is 52.1 nM; in test [17], ~200 nM; in test [20], 30.6 nM; in test [6], 14.7 nM; in test [7], 23 nM; in test [18], 10.2 nM. Moreover, the Kd in test [8] was found to be 35.2 nM; in test [9], 38.8 nM; in test [19], 0.813 nM. The “ME (masking efficiency)” value in test [10] stood at 38 fold; in test [11], 45 fold; in [12], 43 fold; in [13] it was 46 fold.

In general, Kd refers to the equilibrium constant for the complex coming apart. As usually defined, the koff is a measure of how fast the partners let go of each other. Higher therefore signals a short-lived complex. As a reminder, the kon is a measure of how fast the partners come together. Higher therefore signals faster complex formation.
